Sequences and labels used below:
B1: Bli1 (BLOC-1 subunit), overexpressed (natural protein, yeast, UniProt P35727 1-113, looked up)
chain: MGEQNKLYYDVEKLVNSLQESFDLDCAQSVSLFTSKSRSNEAWLEELENKFKLKDDVELDDVENLRAEIDMKLNMLEDKVSYYERLYKELEEFQNEIKIKTVVNNRRQSRTPK
B2: Bls1 (BLOC-1 subunit), overexpressed (natural protein, yeast, UniProt Q06071 1-122, looked up)
chain: MFLTFSMCVNWIIVKMPNRSEELDRLLDKIINSPHRTEASKTLQEIENNQSYILNVQLKKLLRLHDDSFKNKCVSPINYMLEKYTPYMGHTEALQKEAELVDRDLRILEMTYQLIEKNRNSK
B3: Vab2 with C-terminal TAP tag (natural protein)
chain: MVADLTKGILKWKSRIEFDAVGSSSYYEELKGLPPLASHKKLTQAAIFNSTKYELLQVKKDILSIYEVVSRDIDEERNQMQQIELQLKKSLKKVEHSYKNVLKQRASTNCINGNDRLLANAEKKIGSLNEELACVNDIVSDIVNNLTALNANLPKKAQLLKDDSINVAHYPLLFDFLHKSCPKSIIATSEASIHENASPSPLLEHDELPAESINSFYGENELQSDSLAPLQTHDDNISSCKKILPPKFNTTSGPSIETNFENISADGLTYTKCSLKNSISLT
B4: Cnl1 (BLOC-1 subunit), overexpressed (natural protein, yeast, UniProt Q06333 1-122, looked up)
chain: MQDNSSHSRESASAGDDPLGIDKLTVDYDYLLYKMRDYVQSIQLDTTELCKKQNEVMVNGIIENTIDKNIAKFKELLEKCDTLENHYEMLNQLAIITDTFKERIAEAVNNYNSLKKGASKSK
B5: Kxd1 (BLOC-1 subunit), overexpressed (natural protein, yeast, UniProt P53158 1-218, looked up)
chain: MVTGISEENDDEETFSAVHSSTPSINSQSYAIPITEEMSSSFHDSISTTSNSSGSFDSDGSNVSDVVEQNEMDNESNVDEDLFLDNDIPQSSNLLPTDAQDPGPIFDVSRYIFDSLKQSIDSADFSEALSLQTKTSAVINSKSLELKQYIDEMKSRLTQLQEKFENGEATSKKIKRDLETSRKNIDYLNAALRVDFPIEFNQAREKILERRLNEDHDC

The target in assay [1] is B3. Put plainly: affinity purification with mass spectrometry.
Assay [2] has as its target Snn1 (BLOC-1 subunit), overexpressed (yeast, UniProt P48232 1-102). Put plainly: affinity purification with mass spectrometry.
For assay [3], the target named is B3. Put plainly: SEC. A general note: Size exclusion chromatography separates by hydrodynamic size, large species first.

For the molecule B1, in assay [1], the binding result is on record as “binds”.

B2: the binding result in assay [1] is “binds”.

As to B3, the binding result in assay [2] is recorded as “binds”.

In the case of B4, in assay [1], the binding result was “binds”.

Take B5: in assay [3], the binding result is on record as “binds”.

The values above are taken from article PMC3613695 (The Journal of Cell Biology, 2013).
